Results: patent US20220235118A1 (IMMUNOME, published 2022)

B1: PR193_00018 (antibody, V domains shown)
VH: EVQLVESGGGLVQPGGSLRLSCSASGFTFSSFWMSWVRQAPGKGLEWVATIREDGSEKYYVDSVKGRFSISRDNAKNSLYLQMNSLRAEDTAVYYCARSKWLRGSFDYWGQGTLVTVSS
VL: NFMLTQPHSVSESPGKTVTISCTRRSGSIASNYVQWYQQRPGSAPTTVIYEDNQRPSGVPDRFSGSIDSSSNSASLTISGLQTEDEADYYCQSYDSSNPPGASWVFGGGTKLTVL
notes: also called IMM20184; IMM200184
B2: PR200_00622 (antibody, V domains shown)
VH: QVQLVESGGGVVQPGRSLRLSCTASGFTFSTYGMHWVRQAPGKGLEWVAVISYDGSSKHYAESVKGRFTISRDNSNNTLYLQMNRLRAEDTAVYYCARDGQPPGWGNYFDYWGQGTLVTVAS
VL: SYVLTQPPSVSVAPGKTARITCGGNGIGSKSVYWYQQKPGQAPEVVVYDDSDRPSGIPERFSGSNSGNTATLTISRVEAGDEADYYCQVWDSSSDPWVFGGGTKLTVL
notes: also called IMM20253; PR200_00253
B3: PR194_00232 (antibody, V domains shown)
VH: EVQLVESGGGLVQPGGSLRLSCSASGFTVSSNYMSWVRQAPRKGLEWVSVIYAGGSTFYADSVKGRFTISRDNSKNTLLLQMNSLRAEDTAVYYCARDRGGYLDYWGQGTLVTVSS
VL: DIQMTQSPSSLSASVGDRVTITCRASQGISNYLAWYQQKPGKVPKLLIYAASTLQSGVPSRFSGSGSGTDFTLTISSLQPEDVATYYCQKYNSAPGLTFGGGTKVEIK
notes: also called IMM20190; PR194_00190

Experiments:
[1] = target: T1, SARS-CoV-2 Spike S1 domain D614G (SARS-CoV-2, UniProt P0DTC2 16-685); assay: HTRF, soluble S1 construct
T1 construct: domain: S1

[2] = target: T2, SARS-CoV-2 Spike S1 domain A222S, D614G (SARS-CoV-2, UniProt P0DTC2 16-685); assay: HTRF, soluble S1 construct
T2 construct: domain: S1; also called Spanish (A222S, D614G)

[3] = target: T3, SARS-CoV-2 Spike S1 domain ΔHV69/70, Y453F, D614G (SARS-CoV-2, UniProt P0DTC2 16-685); assay: HTRF, soluble S1 construct
T3 construct: domain: S1; also called Denmark (ΔHV69/70, Y453F, D614G); DHV69/70, Y453F, D614G

[4] = target: T4, SARS-CoV-2 Spike S1 domain ΔHV69/70, ΔY144, N501Y, A570D, D614G, P681H (SARS-CoV-2, UniProt P0DTC2 16-685); assay: HTRF, soluble S1 construct
T4 construct: domain: S1; also called U.K. (B.1.1.7); DHV69/70, DY144, N501Y, A570D, D614G, P681H

[5] = target: T5, SARS-CoV-2 Spike S1 domain K417N, E484K, N501Y, D614G (SARS-CoV-2, UniProt P0DTC2 16-685); assay: HTRF, soluble S1 construct
T5 construct: domain: S1; also called S. African (K417N, E484K, N501Y, D614G); B.1.351

[6] = target: T6, SARS-CoV-2 Spike RBD K417N, E484K, N501Y (SARS-CoV-2, UniProt P0DTC2 319-541); assay: HTRF, soluble RBD construct
T6 construct: domain: RBD; also called S. African partial (K417N, E484K, N501Y)

[7] = target: T7, SARS-CoV-2 Spike RBD K417T, E484K, N501Y (SARS-CoV-2, UniProt P0DTC2 319-541); assay: HTRF, soluble RBD construct
T7 construct: domain: RBD; also called Brazilian (K417T, E484K, N501Y)

[8] = target: T8, SARS-CoV-2 Spike-RBD Omicron variant (SARS-CoV-2, UniProt P0DTC2 319-541); assay: HTRF binding assay on soluble Spike-RBD B.1.1.529; % binding relative to Ref
T8 construct: domain: RBD; also called soluble RBD domain of the Spike protein containing mutations found in the Omicron variant

[9] = target: T7, SARS-CoV-2 Spike RBD K417T, E484K, N501Y; assay: HTRF, EC50 of binding, soluble RBD construct

Row | Binder | fold over background [1] | fold over background [2] | fold over background [3] | fold over background [4] | fold over background [5] | EC50 [6] | EC50 [7] | binding result [8] | binding result [9]
1 | B1 | 4.93 fold over background | 5.43 fold over background | 5.61 fold over background | 4.15 fold over background | 4.64 fold over background | 0.0145 nM | 0.0183 nM |  | 
2 | B2 | 6.1 fold over background | 6.64 fold over background | 7 fold over background | 5.92 fold over background | 6.28 fold over background | 0.0197 nM | 0.0236 nM |  | 
3 | B3 | 4.84 fold over background | 8.47 fold over background | 8.18 fold over background | 3.91 fold over background | 1.12 fold over background |  |  | no binding | no binding
